{
  "source": "paper PMC4057019",
  "about": "(Matrix biology : journal of the International Society for …, 2014)",
  "key": {"[1]": {"molecular_target": "recombinant human TLR-4 (Glu24 to Lys631) (human, UniProt O00206 24-631, labeled with fluorophore NT-647)", "sequence (O00206 24-631)": "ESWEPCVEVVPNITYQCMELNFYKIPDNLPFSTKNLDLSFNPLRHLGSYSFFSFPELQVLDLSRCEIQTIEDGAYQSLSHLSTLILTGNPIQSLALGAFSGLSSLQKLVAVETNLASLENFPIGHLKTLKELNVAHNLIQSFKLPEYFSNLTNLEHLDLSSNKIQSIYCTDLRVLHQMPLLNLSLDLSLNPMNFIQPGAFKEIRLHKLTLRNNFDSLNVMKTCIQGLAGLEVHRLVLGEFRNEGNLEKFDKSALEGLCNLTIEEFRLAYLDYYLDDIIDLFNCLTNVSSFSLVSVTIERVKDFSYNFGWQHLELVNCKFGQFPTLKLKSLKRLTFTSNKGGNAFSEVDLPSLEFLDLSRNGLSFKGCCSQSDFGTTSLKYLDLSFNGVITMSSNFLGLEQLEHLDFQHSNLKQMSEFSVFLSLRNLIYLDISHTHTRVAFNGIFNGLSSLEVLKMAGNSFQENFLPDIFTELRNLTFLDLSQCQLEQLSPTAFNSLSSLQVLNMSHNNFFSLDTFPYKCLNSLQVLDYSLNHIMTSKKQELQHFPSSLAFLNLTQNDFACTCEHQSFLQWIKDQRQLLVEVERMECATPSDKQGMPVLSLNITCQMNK", "assay": "MST"}, "[2]": {"molecular_target": "recombinant human TLR-2 (Met1 to Leu590) (human, UniProt O60603 21-590, labeled with fluorophore NT-647)", "sequence (O60603 21-590)": "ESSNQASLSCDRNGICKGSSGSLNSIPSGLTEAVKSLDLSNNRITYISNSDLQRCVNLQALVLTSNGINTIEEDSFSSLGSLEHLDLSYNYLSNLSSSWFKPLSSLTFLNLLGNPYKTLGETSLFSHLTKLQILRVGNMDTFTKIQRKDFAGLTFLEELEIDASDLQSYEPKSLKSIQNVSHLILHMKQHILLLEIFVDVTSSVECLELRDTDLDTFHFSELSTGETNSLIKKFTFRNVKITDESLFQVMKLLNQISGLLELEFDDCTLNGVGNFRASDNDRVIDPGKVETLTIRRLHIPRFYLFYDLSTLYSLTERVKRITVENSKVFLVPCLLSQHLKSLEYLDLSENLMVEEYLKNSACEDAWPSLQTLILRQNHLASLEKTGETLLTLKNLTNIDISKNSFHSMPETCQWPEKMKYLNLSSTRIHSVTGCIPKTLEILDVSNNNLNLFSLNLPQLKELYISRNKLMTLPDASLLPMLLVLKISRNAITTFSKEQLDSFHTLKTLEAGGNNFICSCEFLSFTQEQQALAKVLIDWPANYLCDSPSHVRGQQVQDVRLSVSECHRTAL", "assay": "MST"}},
  "data": [
    {"binder": "human biglycan (soluble biglycan proteoglycan) (natural protein, UniProt P21810 38-368, looked up, two chondroitin/dermatan sulfate chains) DEEASGADTSGVLDPDSVTPTYSAMCPFGCHCHLRVVQCSDLGLKSVPKEISPDTTLLDLQNNDISELRKDDFKGLQHLYALVLVNNKISKIHEKAFSPLRKLQKLYISKNHLVEIPPNLPSSLVELRIHDNRIRKVPKGVFSGLRNMNCIEMGGNPLENSGFEPGAFDGLKLNYLRISEAKLTGIPKDLPETLNELHLDHNKIQAIELEDLLRYSKLYRLGLGHNQIRMIENGSLSFLPTLRELHLDNNKLARVPSGLPDLKLLQVVYLHSNNITKVGVNDFCPMGFGVKRAYYNGISLFNNPVPYWEVQPATFRCVTDRLAIQFGNYKK", "values": [
      {"measurement": "Kd", "setting": "[1]", "result": 28, "unit": "nM"},
      {"measurement": "Kd", "setting": "[2]", "result": 31, "unit": "nM"}
    ]}
  ]
}
